“And” between values parts separate entries of the source, which are not always exact repeats. Equal entries are not always repeated.

This test has as its target Recombinant human VEGF165 (Peprotech, Cat #100-20) (human) (UniProt P15692). Description: ELISA; rhVEGF165 coated, anti-human IgG Fc-HRP detection. (In general: An ELISA detects its analyte on a solid surface through an enzyme-linked reagent.)

Chain of Aflibercept (Fc fusion) (chain): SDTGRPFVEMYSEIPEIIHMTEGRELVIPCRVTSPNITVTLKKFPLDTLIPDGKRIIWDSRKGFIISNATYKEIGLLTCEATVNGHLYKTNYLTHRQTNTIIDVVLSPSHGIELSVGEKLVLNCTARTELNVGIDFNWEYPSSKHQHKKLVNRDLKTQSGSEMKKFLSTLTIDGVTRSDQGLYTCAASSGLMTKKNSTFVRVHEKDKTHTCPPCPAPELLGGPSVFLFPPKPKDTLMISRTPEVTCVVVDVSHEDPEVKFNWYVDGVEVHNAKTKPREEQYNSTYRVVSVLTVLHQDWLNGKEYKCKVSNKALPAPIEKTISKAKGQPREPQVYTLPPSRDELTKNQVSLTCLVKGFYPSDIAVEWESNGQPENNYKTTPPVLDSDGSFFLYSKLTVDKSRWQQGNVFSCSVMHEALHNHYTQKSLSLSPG
Chain of Recombinant human VEGF165 (Peprotech, Cat #100-20) (human) (P15692 other isoform, or with tags, fused parts or gaps limits assumed): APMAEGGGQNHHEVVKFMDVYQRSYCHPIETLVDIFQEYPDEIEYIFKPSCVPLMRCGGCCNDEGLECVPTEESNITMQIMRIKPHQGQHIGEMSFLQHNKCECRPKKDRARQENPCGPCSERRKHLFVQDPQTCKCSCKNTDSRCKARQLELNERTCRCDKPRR

One may read the EC50 as the concentration needed to bring the measured effect to its halfway point. Aflibercept (Fc fusion): the EC50 is 51.4 pM and 74 pM and 40.2 pM.

Values taken from patent US20250250330A1.
